According to patent US20250034266A1 (ZAI LAB SHANGHAI, published 2025):
Residue numbers refer to the chain shown, from its start. Names and notes keep the numbering of the source.

Assays:
human CCR8 [1] = molecular target: T1, human CCR8 (human, UniProt P51685 1-355); assay: cell-based or functional assay
T1 sequence (P51685 whole entry): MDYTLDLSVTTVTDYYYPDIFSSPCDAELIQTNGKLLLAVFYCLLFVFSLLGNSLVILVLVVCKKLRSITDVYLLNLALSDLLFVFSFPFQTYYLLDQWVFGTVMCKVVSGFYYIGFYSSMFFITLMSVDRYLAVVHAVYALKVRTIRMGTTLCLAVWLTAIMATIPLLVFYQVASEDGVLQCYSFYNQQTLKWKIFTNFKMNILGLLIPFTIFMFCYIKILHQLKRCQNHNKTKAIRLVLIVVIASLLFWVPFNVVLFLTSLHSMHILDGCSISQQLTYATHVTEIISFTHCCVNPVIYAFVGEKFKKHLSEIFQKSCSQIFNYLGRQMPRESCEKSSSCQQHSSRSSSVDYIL

human CCR8 [2] = molecular target: T1, human CCR8; assay: cell-based or functional assay; remark: listed apart in the source
[3] = molecular target: human CCR8 tagged with ProLink (PK) (human, UniProt P51685 1-355); assay: cell-based or functional assay
human CCR8 [4] = molecular target: T2, human CCR8 (human, UniProt P51685 1-355); assay: cell-based or functional assay; remark: listed apart in the source
T2 sequence (P51685 whole entry): as above

human CCR8 [5] = molecular target: T2, human CCR8; assay: FACS on CHO-K1-human CCR8 cells
cynomolgus CCR8 [6] = molecular target: T3, cynomolgus CCR8 (cynomolgus, UniProt G7NYJ2 1-355); assay: FACS on HEK293-cynomolgus CCR8 cells
T3 construct: whole, on cells

human CCR8 [7] = molecular target: T2, human CCR8; assay: FACS on HuT78 cells (endogenous human CCR8)
Experimental: HuT78 cells expressing endogenous human CCR8 were used for determining binding affinities of selected affinity matured anti-CCR8 antibodies. Briefly, a total of […] cells for each well were seeded in 96-well plates and washed with FACS buffer (DPBS containing […]) for once. […] Cells were incubated with 50 μL of diluted antibodies at 4° C. for 1 hour. After primary antibody incubation, cells were washed for 3 times by FACS buffer. Then, cells were stained by Alexa Fbu647 labeled anti-human IgG secondary antibody (Jackson ImmunoResearch, #109606170) at 1:600 dilution in FACS buffer for 0.5 hour at 4° C. After 3 times washed, flow cytometry (Sartourius, iQue3) was performed to measure the binding affinities of antibodies. […]

human CCR8 [8] = molecular target: T2, human CCR8; assay: FACS, competition with CCL1 on CHO-K1-human CCR8 cells
human CCR8 [9] = molecular target: T2, human CCR8; assay: FACS of purified scFv on CHO-K1-human CCR8 cells
human CCR8 [10] = molecular target: T1, human CCR8; assay: cell-based or functional assay; remark: listed apart in the source
human CCR8 [11] = molecular target: T1, human CCR8; assay: flow cytometry on TALL-1 cells (endogenous CCR8)
Experimental: Briefly, a total of 5×10⁴ cells for each well were seeded in 96-well plates and washed with FACS buffer (DPBS containing 1.5% FBS) for once. Antibodies were prepared with 3-fold serial dilution ranging from 100 nM to 0.00508 nM in FACS buffer. Cells were incubated with 50 μL of diluted antibodies at 4° C. for 40 minutes. After primary antibody incubation, cells were washed twice by FACS buffer. Then, cells were stained by Alexa Flu647-labeled anti-human IgG Fc secondary antibody (Jackson ImmunoResearch, #109606170) at 1:500 dilution in FACS buffer for 40 minutes at 4° C. After 2 times wash with FACS buffer, flow cytometry (BD FACS Celesta) was performed to measure the binding affinities of antibodies.

human CCR8 [12] = molecular target: T2, human CCR8; assay: cell-based or functional assay; remark: listed apart in the source
human CCR8 [13] = molecular target: T2, human CCR8; assay: FACS on HEK293-human CCR8 cells
cynomolgus CCR8 [14] = molecular target: T3, cynomolgus CCR8; assay: FACS on ExpiCHO-S-cynomolgus CCR8 cells
human CCR8 [15] = molecular target: T2, human CCR8; assay: FACS, competition with AF647-human CCL1 on CHO-K1-human CCR8 cells

T3 sequence (G7NYJ2 entry or part of it): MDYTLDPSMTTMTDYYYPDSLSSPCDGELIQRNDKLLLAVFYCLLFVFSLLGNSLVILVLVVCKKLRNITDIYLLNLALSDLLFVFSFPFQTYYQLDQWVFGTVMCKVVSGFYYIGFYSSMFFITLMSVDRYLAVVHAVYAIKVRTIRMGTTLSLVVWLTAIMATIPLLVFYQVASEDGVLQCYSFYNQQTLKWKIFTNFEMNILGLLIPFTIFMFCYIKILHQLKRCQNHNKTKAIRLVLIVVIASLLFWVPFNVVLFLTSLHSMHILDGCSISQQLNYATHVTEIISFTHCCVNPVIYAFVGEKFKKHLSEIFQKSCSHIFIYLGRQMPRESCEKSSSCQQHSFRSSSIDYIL
human CCR8 tagged with ProLink (PK), sequence (P51685 whole entry): as the sequence (P51685 whole entry) above

B1: Hu149-12G1 (antibody, human IgG1)
heavy: not shown
VL: DIVMTQSPLSLPVTPGEPASISCRSSKSLLHSNANTYLYWFLQKPGQSPQLLIYRMSNLASGVPDRFSGSGSGTDFTLKISRVEAEDVGVYYCMQHLEYPLTFGGGTKVELK
EC50, ADCC reporter, F variant CD16a/NFAT-Jurkat, target CHO-K1-human CCR8 cells (human CCR8 [1]): 0.0598 nM | EC50, ADCC reporter, F variant CD16a/NFAT-Jurkat, target HuT78 cells (human CCR8 [1]): 0.744 nM | EC50, ADCC reporter, V variant CD16a/NFAT-Jurkat, target CHO-K1-human CCR8 cells (human CCR8 [1]): 0.043 nM | EC50, ADCC reporter, V variant CD16a/NFAT-Jurkat, target HuT78 cells (human CCR8 [1]): 0.495 nM | Max (RLU), ADCC reporter, F variant CD16a/NFAT-Jurkat, target CHO-K1-human CCR8 cells (human CCR8 [1]): 4.96e+06 RLU | Max (RLU), ADCC reporter, F variant CD16a/NFAT-Jurkat, target HuT78 cells (human CCR8 [1]): 5.28e+06 RLU | Max (RLU), ADCC reporter, V variant CD16a/NFAT-Jurkat, target CHO-K1-human CCR8 cells (human CCR8 [1]): 2.28e+06 RLU | Max (RLU), ADCC reporter, V variant CD16a/NFAT-Jurkat, target HuT78 cells (human CCR8 [1]): 4.19e+06 RLU | EC50, ADCC with human PBMCs, target CHO-K1-human CCR8 cells (human CCR8 [2]): 0.0113 nM | Max specific lysis (%), ADCC with human PBMCs, target CHO-K1-human CCR8 cells (human CCR8 [2]): 36.4%

B2: Hu149-12G1m (antibody, human IgG1)
heavy: EVQLVESGGGLVQPGGSLKLSCAASGFTFNTYAMNWVRQASGKGLEWVGRIRSKSNFYATAYAASVKGRFTISRDDSKNTAYLQMNSLKTEDTAVYYCTRGKEYGSSYAMDYWGQGTLVTVSSASTKGPSVFPLAPSSKSTSGGTAALGCLVKDYFPEPVTVSWNSGALTSGVHTFPAVLQSSGLYSLSSVVTVPSSSLGTQTYICNVNHKPSNTKVDKKVEPKSCDKTHTCPPCPAPELVGGPSVFLLPPKPKDTLMISRTPEVTCVVVDVSHEDPEVKFNWYVDGVEVHNAKTKPPEEQYNSTLRVVSVLTVLHQDWLNGKEYKCKVSNKALPAPIEKTISKAKGQPREPQVYTLPPSRDELTKNQVSLTCLVKGFYPSDIAVEWESNGQPENNYKTTPLVLDSDGSFFLYSKLTVDKSRWQQGNVFSCSVMHEALHNHYTQKSLSLSPGK
VL: B1 VL
EC50, ADCC reporter, F variant CD16a/NFAT-Jurkat, target CHO-K1-human CCR8 cells (human CCR8 [1]): 0.00405 nM | EC50, ADCC reporter, F variant CD16a/NFAT-Jurkat, target HuT78 cells (human CCR8 [1]): 0.00869 nM | EC50, ADCC reporter, V variant CD16a/NFAT-Jurkat, target CHO-K1-human CCR8 cells (human CCR8 [1]): 0.0056 nM | EC50, ADCC reporter, V variant CD16a/NFAT-Jurkat, target HuT78 cells (human CCR8 [1]): 0.0114 nM | Max (RLU), ADCC reporter, F variant CD16a/NFAT-Jurkat, target CHO-K1-human CCR8 cells (human CCR8 [1]): 8.18e+06 RLU | Max (RLU), ADCC reporter, F variant CD16a/NFAT-Jurkat, target HuT78 cells (human CCR8 [1]): 1.48e+07 RLU | Max (RLU), ADCC reporter, V variant CD16a/NFAT-Jurkat, target CHO-K1-human CCR8 cells (human CCR8 [1]): 3.94e+06 RLU | Max (RLU), ADCC reporter, V variant CD16a/NFAT-Jurkat, target HuT78 cells (human CCR8 [1]): 8.64e+06 RLU | EC50, ADCC with human PBMCs, target CHO-K1-human CCR8 cells (human CCR8 [2]): 0.000136 nM | Max specific lysis (%), ADCC with human PBMCs, target CHO-K1-human CCR8 cells (human CCR8 [2]): 44.2% | IC50, inhibition of CCL1 induced β-Arrestin recruitment, CHO-K1-human CCR8 β-Arrestin cells [3]: 1.16 nM

B3: Hu149-18 (antibody, human IgG1, V domains shown)
VH: EVQLVESGGGLVQPGGSLKLSCAASGFTFNTYAMNWVRQASGKGLEWVGRIRSKSNFYATAYAASVKGRFTISRDDSKNTAYLQMNSLKTEDTAVYYCTRGRDYGSSYAMDYWGQGTLVTVSS
VL: B1 VL with E98R
notes: human IgG1
IC50, inhibition of CCL1 induced β-Arrestin recruitment (human CCR8 [4]): 0.61 nM | Max Inhibition (%), CCL1 induced β-Arrestin recruitment (human CCR8 [4]): 88.8% | EC50 (human CCR8 [5]): 0.0722 nM | Max MFI (human CCR8 [5]): 694000 MFI | EC50 (cynomolgus CCR8 [6]): 0.0826 nM | Max MFI (cynomolgus CCR8 [6]): 4.15e+06 MFI | Max MFI (human CCR8 [7]): 351000 MFI | IC50 (human CCR8 [8]): 0.0614 nM | Max Inhibition (%) (human CCR8 [8]): 101%

B4: 149-9 scFv (WT) (scFv)
scFv: EVQLVESGGGLVQPGGSLKLSCAASGFTFNTYAMNWVRQASGKGLEWVGRIRSKSNFYATAYAASVKGRFTISRDDSKNTAYLQMNSLKTEDTAVYYCTRGRDYGSSYAMDYWGQGTLVTVSSGGGGSGGGGSGGGGSDIVMTQSPLSLPVTPGEPASISCRSSKSLLHSNANTYLYWFLQKPGQSPQLLIYRMSNLASGVPDRFSGSGSGTDFTLKISRVEAEDVGVYYCMQHLEYPLTFGGGTKVELK
notes: VH-VL format with (G4S)3 linker
GeoMean AF647 (RL1-H) of CHO-K1-human CCR8 / GeoMean AF647 (RL1-H) in H12(NC) (human CCR8 [9]): 2.2

B5: VH-PH5-P2B6(LCDR3) (scFv)
scFv: B4 scFv with E236K
GeoMean AF647 (RL1-H) of CHO-K1-human CCR8 / GeoMean AF647 (RL1-H) in H12(NC) (human CCR8 [9]): 4.6

B6: VH-PH5-P9E9 (scFv)
scFv: B4 scFv with R102K, D103E
GeoMean AF647 (RL1-H) of CHO-K1-human CCR8 / GeoMean AF647 (RL1-H) in H12(NC) (human CCR8 [9]): 10.8

B7: VH-PH5-P3E3 (scFv)
scFv: B4 scFv with D103E, S107A
GeoMean AF647 (RL1-H) of CHO-K1-human CCR8 / GeoMean AF647 (RL1-H) in H12(NC) (human CCR8 [9]): 3.6

B8: VH-PH7-P2H12 (scFv)
scFv: B4 scFv with S41P
notes: also called VH-PH7-P2H12(S41P)
GeoMean AF647 (RL1-H) of CHO-K1-human CCR8 / GeoMean AF647 (RL1-H) in H12(NC) (human CCR8 [9]): 6

B9: VL-PH5-P3E4 (scFv)
scFv: B4 scFv with E236R
GeoMean AF647 (RL1-H) of CHO-K1-human CCR8 / GeoMean AF647 (RL1-H) in H12(NC) (human CCR8 [9]): 2.9

B10: VL-PH5-P5D9 (scFv)
scFv: B4 scFv with E236S
GeoMean AF647 (RL1-H) of CHO-K1-human CCR8 / GeoMean AF647 (RL1-H) in H12(NC) (human CCR8 [9]): 3.2

B11: VH-PH5-P5F7 (scFv)
scFv: B4 scFv with D103E, S106R
GeoMean AF647 (RL1-H) of CHO-K1-human CCR8 / GeoMean AF647 (RL1-H) in H12(NC) (human CCR8 [9]): 7.1

B12: VH-PH5-P7B9 (scFv)
scFv: B4 scFv with D103E
GeoMean AF647 (RL1-H) of CHO-K1-human CCR8 / GeoMean AF647 (RL1-H) in H12(NC) (human CCR8 [9]): 10.4

B13: TPP21360 (antibody, V domains shown)
VH: EVQLLESGGGLVQPGGSLRLSCAASGFTFSSYGMHWVRQAPGKGLEWVSAINWNGGSTGYADSVKGRFTISRDNSKNTLYLQMNSLRAEDTAVYYCARGHHSGYDGRFFDYWGQGTLVTVSS
VL: QSVLTQPPSVSGAPGQRVTISCTGSSSNIGAGYNVHWYQQLPGTAPKLLIYTNNRRPSGVPDRFSGSKSGTSASLAISGLRSEDEADYYCAAWDASLSGWVFGGGTKLTVLG
EC50, ADCC with human PBMCs (LDH release), target TALL-1 cells (human CCR8 [10]): 0.553 nM | EC50 (human CCR8 [11]): 0.461 nM

B14: CM348 (antibody, V domains shown)
VH: QVQLVETGGGLVRPGNSLKLSCVTSGFSFSNYRMHWLRQPPGKRLEWIAVITVKSDNYGANYAESVKGRFTISRDDSKSSVYLQMNRLREEDTATYYCSSLGRVAYWGQGTLVTVSA
VL: DIVMTQSQKFMFTSVGDRVSVTCKASQNVDTNVVWYQQKPGQSPKALIYSASSRYSGVPDRFTGSGSGTDFTLTISNVQSEDLAEYFCQQHNSFPLTFGAGTKLELI
notes: CM348 is not defined in words; also called CM348 HuIgG1; parental antibody CM348
EC50, ADCC with human PBMC (human CCR8 [12]): 0.41 nM | Max specific lysis (%), ADCC with human PBMC (human CCR8 [12]): 13.1% | EC50 (human CCR8 [13]): 0.091 nM | Max MFI (human CCR8 [13]): 5050 MFI | EC50 (cynomolgus CCR8 [14]): 65.3 nM | Max MFI (cynomolgus CCR8 [14]): 238 MFI | IC50 (human CCR8 [15]): 0.17 nM | Max Inhibition (%) (human CCR8 [15]): 96.4%
